Laboratory results published in patent US20110002929A1 (Ablynx, published 2011).
Positions count from the first letter of the chain named.

B1: RANKL23 (VHH)
VHH: EVQLVESGGGLVQAGGSLRLSCAASGLTTVYTMAWFRQAPGKEREFVAAITRSGKTTYYADSVKGRFTISRDNAKNTVNLQMNSLKPDDTAVYYCAAKALLGMTNPAGYEYWGQETQVTVSS
notes: also called 9H5; not shown: c-myc and His6 tags
B2: RANKL16 (VHH)
VHH: EVQLVESGGGLVQAGGSLRLSCVASRRTFSSYAMGWFRQVPGKERDFVAAISTGSITIYGDSVKGRFTISRDNAKNTVYLQMNSLKPEDTAVYYCAAGKREPYLRQYTASNPYDYWGQGTQVTVSS
notes: not shown: c-myc and His6 tags
B3: RANKL21 (VHH)
VHH: B2 VHH with S30N, M34V, K43E, I56V, G60A, K99N
notes: as for B2
B4: RANKL7 (VHH)
VHH: EVQLVESEGGPVQSGGSLRLSCAASGRTFSVSTIAWFRQAPGEGREFVAAIYPSGRNAYVADSVKGRFTISRDNAKKTVYLQMNSLKPEDTAAYYCAAHQPSGSYYSAEAYAYWGQGTQVTVSS
notes: as for B2
B5: RANKL4 (VHH)
VHH: KVQLVESGGGLVQTGDSLRLSCAASGRAIGSYAMGWFRQAPGKEREFVAVINYRGSSLKYADRVKGRFTISRDNAKNMVYLQMNSLKPDDTAVYYCAAQTSGADFGTTPQRYTYWGQGTQVTVSS
notes: as for B2
B6: RANKL1 (VHH)
VHH: EVQLVESGGGLVQAGGSLRLSCAVSGRTFSSSTMAWFRQPPGGERDFVASISTSGTRTLYADSVKGRFTISRDNAKSTGYLQMNSLKPEDTAVYFCAAVNRRGWEFWRLASGYDYWGLGAQVTVSS
notes: as for B2
B7: RANKL22 (VHH)
VHH: EVQLVESGGGLMQTGGSLRLSCAASERTSRNYGMGWFRQAPGKEREFVAAITSAGGTTYYGDFVKGRFTISRDSAKYTVYLQMNSLKPEDTAVYWCAAKLQIGGRWHNLNDYGYRGQGTQVTVSS
notes: also called 7D12; not shown: c-myc and His6 tags
B8: RANKL17 (VHH)
VHH: EVQLVESGGGLVQVGDSLRLSCEASGRSRFSTYVMGWFRQAPGKEREFVAAVSWSSGNAYYIDSAKGRFATSRDTAKNIMYLQMNSLKPEDTAVYTCAAGRGYGLLSEYTQAPRYDYWGQGTQVTVSS
notes: as for B2
B9: RANKL14 (VHH)
VHH: EVQLVESGGGLVQAGGSLRLSCAASGRTSSYYTMSWFRQDPGKEREFVAAVPLSGNTYYADPVRGRFTISRDNAKNTADLQMNSLKPEDTAVYYCAARASGSIYNRGSYAYWGQGTQVTVSS
notes: as for B2
B10: RANKL19 (VHH)
VHH: EVQLVESGGGLVQAGDSLRLSCAASGRTVTMGWFRQAPGKEREFVASITGSGSVTNYADSVKGRFTISRDNAKNTVFLQMNSLKPEDTAVYYCAAYLPSPYYSSYYDSTKYEYWGQGTQVTVSS
notes: as for B2
B11: RANKL20 (VHH)
VHH: EVQLVESGGGLVQAGDSLRLSCAASGRTFTMGWFRQAPGTEREFVAAISGSGKITNYADSVKGRFTISRDHAKNTVFLQMDSLKPEDTAVYYCAGYLRSPYYSSFYDSAKYEYWGQGTQVTVSS
notes: as for B2

Legend:
mouse RANK-L = target: T1, mouse RANK-L (mouse, UniProt O35235 158-316, limits assumed); test: ELISA, set-up as for human RANK-L
T1 construct: also called murine RANK-L
T1 sequence (looked up): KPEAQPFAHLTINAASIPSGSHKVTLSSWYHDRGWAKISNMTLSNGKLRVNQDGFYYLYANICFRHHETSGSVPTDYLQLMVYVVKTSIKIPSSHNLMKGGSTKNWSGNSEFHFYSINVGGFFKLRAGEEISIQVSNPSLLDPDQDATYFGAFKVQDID
Protocol: (§1) Therefore 2 μg/ml neutravidin was coated overnight at 4° C. The plates were washed 5 times with 300 μl PBS and then blocked with […] 1% casein/PBS for 2 hours at room temperature. […] After extensive washing with PBS, varying concentrations of Nanobodies starting from 500 nM to 160 pM diluted in 1% casein/PBS were added to the wells and the plates were incubated for 1 hour at room temperature. Bound Nanobodies were detected by subsequent incubations of a primary mouse anti-myc antibody and a secondary anti mouse-HRP conjugate (DAKO, Glostrup, Denmark) and using TMB-H2O2 (Pierce, Rockford, Ill., USA) substrate cocktail. The reaction was stopped with H₂SO₄ and the OD was read at 450 nm.

human RANK-L [1] = target: T2, human RANK-L (human, UniProt O14788 140-317, limits assumed); test: ELISA (ED50), biotin-hRANK-L on neutravidin
T2 construct: Soluble protein, used coated, biotinylated or labelled in ELISA, AlphaScreen, FMAT and Biacore; also called hRANK-L; soluble human RANK-L
T2 sequence (looked up): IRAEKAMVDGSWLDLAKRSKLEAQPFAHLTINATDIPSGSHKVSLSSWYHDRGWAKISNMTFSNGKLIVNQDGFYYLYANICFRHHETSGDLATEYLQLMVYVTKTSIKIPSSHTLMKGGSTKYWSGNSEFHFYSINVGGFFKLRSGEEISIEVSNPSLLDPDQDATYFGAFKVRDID
Protocol: as §1

human RANK-L [2] = target: T2, human RANK-L; test: AlphaScreen, biotin-hRANK-L / RANK-huFc beads
Protocol: To this mixture, the RANK acceptor beads and the streptavidin donor beads were added and further incubated for 1 hour at room temperature. Fluorescence was measured by reading plates on the EnVision Multilabel Plate Reader (Perkin Elmer) using an excitation wavelength of 680 nm and an emission wavelength of 520 nm.

| Binder | binding result (mouse RANK-L) | EC50 (human RANK-L [1]) | IC50 (human RANK-L [2]) |
| --- | --- | --- | --- |
| B1 | no binding (tested: 500 nM to 160 pM) | 0.679 nM | 3.53 nM |
| B2 | no binding (tested: 500 nM to 160 pM) | 0.953 nM | 2.25 nM |
| B3 | no binding (tested: 500 nM to 160 pM) | 0.861 nM | 1.58 nM |
| B4 | no binding (tested: 500 nM to 160 pM) | 0.376 nM | 0.459 nM |
| B5 | no binding (tested: 500 nM to 160 pM) | 0.38 nM | 0.582 nM |
| B6 | no binding (tested: 500 nM to 160 pM) | 0.619 nM | 0.739 nM |
| B7 | no binding (tested: 500 nM to 160 pM) | 0.379 nM | 3.02 nM |
| B8 | no binding (tested: 500 nM to 160 pM) | 0.453 nM | 0.737 nM |
| B9 | no binding (tested: 500 nM to 160 pM) | 0.574 nM | 1.75 nM |
| B10 | no binding (tested: 500 nM to 160 pM) | 0.506 nM | 2.24 nM |
| B11 | no binding (tested: 500 nM to 160 pM) | 0.306 nM | 1.36 nM |
